Where “and” joins values, the source holds several entries; their conditions need not be identical. Identical values can stand only once.
Each binder was assayed against T1, PRPF40A WW12 (tandem WW domains, residues 141-236) (human, UniProt O75400 141-236) (assay: ITC; GB1-peptide or GB1-SF1 construct in the cell, PRPF40A WW12 in the syringe (as shown in Supplementary Figures 7 and 16A); 25 °C, 20 mM sodium phosphate pH 6.5, 100 mM NaCl; one-site binding model; at least duplicates; affinities apparent). Conditions: both partners purified.
T1 construct: A few vector residues probably remain at the N-terminus after TEV cleavage (pETM11, NcoI site); 15N-labelled in the NMR experiments; also called PRPF40A WW tandem; WW12 wt; source: E. coli BL21(DE3), purified (Ni-NTA, TEV digestion, reverse Ni-NTA, SEC); not shown: His6, N-terminal, cleaved

Binder | Kd [µM]
PPPPPPPPPPPPPPPP [GB1-polyproline peptide P16] | 3.35 ± 0.27
TMVPLPPGVQPPLPPG [GB1-SF1 16-mer peptide 565-580] | 30.4 ± 6.7
GMMYAPPPPPPPPMDPSNFVTMMGMGVAGMPPFGMPPAPPPPPPQN (domain or fragment, UniProt Q15637 594-639, looked up, splicing factor 1 (SF1), residues 594-639 of the proline-rich C-terminal region; His6-GB1-TEV site cassette of the pET24 vector, not cleaved; source: E. coli BL21(DE3), purified (Ni-NTA, SEC); not shown: GB1, N-terminal, kept) [GB1-SF1 Pro D (residues 594-639)] | 10.1 ± 4.2
PPPPPPPPPPPPPPPPPPPPPPPPP | 10.8 ± 1.8

The binders below were run against T2, PRPF40A WW12 (tandem WW domains, residues 141-236) (human, UniProt O75400 141-236) (assay: ITC; GB1-tagged SF1/SF3A1 constructs in the syringe and the WW tandem in the cell; 25 °C, 20 mM sodium phosphate pH 6.5, 100 mM NaCl; one-site model; apparent affinities). Conditions: both partners purified.
T2 construct: pETM11 vector, NcoI/KpnI; 15N or 13C,15N labelled for NMR; also called PRPF40A WW tandem; PRPF40A tandem WW domains; source: E. coli BL21(DE3), purified (Ni-NTA, TEV, reverse Ni-NTA, SEC); not shown: His6, N-terminal, cleaved

Binder | Kd [µM]
GMMYAPPPPPPPPMDPSNFVTMMGMGVAGMPPFGMPPAPPPPPPQN (domain or fragment, UniProt Q15637 594-639, looked up, SF1 residues 594-639; also called the very C-terminal region; source: E. coli BL21(DE3), purified (Ni-NTA, SEC), GB1 tag kept; not shown: GB1, N-terminal, kept) [GB1-tagged SF1 Pro D (594-639)] | ~10

The binders below were run against T1, PRPF40A WW12 (tandem WW domains, …) (assay: ITC; PRPF40A construct (WW12, N-ext-WW12 or its mutant) in the cell, GB1-SF1 or GB1-SF3A1 construct in the syringe (as shown in Supplementary Figures 16 and 21); 25 °C, 20 mM sodium phosphate pH 6.5, 100 mM NaCl; one-site binding model; at least duplicates; affinities apparent). Conditions: both partners purified.

Binder | stoichiometry N [sites] | Kd [µM]
GB1-SF1 Pro ABCD (residues 410-639) (domain or fragment, UniProt Q15637 410-639, looked up, splicing factor 1 (SF1), residues 410-639, the complete proline-rich C-terminal region; His6-GB1-TEV site cassette of the pET24 vector, not cleaved; source: E. coli BL21(DE3), purified (Ni-NTA, SEC); not shown: GB1, N-terminal, kept) GHPMQHNPNGPPPPWMQPPPPPMNQGPHPPGHHGPPPMDQYLGSTPVGSGVYRLHQGKGMMPPPPMGMMPPPPPPPSGQPPPPPSGPLPPWQQQQQQPPPPPPPSSSMASSTPLPWQQNTTTTTTSAGTGSIPPWQQQQAAAAASPGAPQMQGNPTMVPLPPGVQPPLPPGAPPPPPPPPPGSAGMMYAPPPPPPPPMDPSNFVTMMGMGVAGMPPFGMPPAPPPPPPQN | 0.28 ± 0.05 | 
GB1-SF1 Pro BC (residues 468-594) (domain or fragment, UniProt Q15637 468-594, looked up, splicing factor 1 (SF1), residues 468-594; His6-GB1-TEV site cassette of the pET24 vector, not cleaved; also called SF1 BC; source: E. coli BL21(DE3), purified (Ni-NTA, SEC); not shown: GB1, N-terminal, kept) GMMPPPPMGMMPPPPPPPSGQPPPPPSGPLPPWQQQQQQPPPPPPPSSSMASSTPLPWQQNTTTTTTSAGTGSIPPWQQQQAAAAASPGAPQMQGNPTMVPLPPGVQPPLPPGAPPPPPPPPPGSAG | 0.53 ± 0.05 | 
GB1-SF3A1 C-ter Pro (residues 552-683) (domain or fragment, UniProt Q15459 552-683, looked up, His6-GB1-TEV site cassette of the pET24 vector, not cleaved; source: E. coli BL21(DE3), purified (Ni-NTA, SEC); not shown: GB1, N-terminal, kept) EIPQQPPPPSSATNIPSSAPPITSVPRPPTMPPPVRTTVVSAVPVMPRPPMASVVRLPPGSVIAPMPPIIHAPRINVVPMPPSAPPIMAPRPPPMIVPTAFVPAPPVAPVPAPAPMPPVHPPPPMEDEPTSK | 0.27 ± 0.07 | 
GB1-SF1 Pro CD (residues 539-639) (domain or fragment, UniProt Q15637 539-639, looked up, splicing factor 1 (SF1), residues 539-639; His6-GB1-TEV site cassette of the pET24 vector, not cleaved; source: E. coli BL21(DE3), purified (Ni-NTA, SEC); not shown: GB1, N-terminal, kept) GSIPPWQQQQAAAAASPGAPQMQGNPTMVPLPPGVQPPLPPGAPPPPPPPPPGSAGMMYAPPPPPPPPMDPSNFVTMMGMGVAGMPPFGMPPAPPPPPPQN | 0.39 ± 0.02 | 
EGQKVPPPPETPMPPPLPPTPDQVIVRKDYDPKASKPLPPAPAPDEYLVS (domain or fragment, UniProt Q15459 364-413, looked up, SF3A1 (U2 snRNP component), proline-rich region, residues 364-413; His6-GB1-TEV site cassette of the pET24 vector, not cleaved; source: E. coli BL21(DE3), purified (Ni-NTA, SEC); not shown: GB1, N-terminal, kept) [GB1-SF3A1 Middle Pro (residues 364-413)] | 0.56 ± 0.14 | 8.86 ± 1.38
GB1-SF1 Pro BCD (residues 468-639) (domain or fragment, UniProt Q15637 468-639, looked up, splicing factor 1 (SF1), residues 468-639; His6-GB1-TEV site cassette of the pET24 vector, not cleaved; source: E. coli BL21(DE3), purified (Ni-NTA, SEC); not shown: GB1, N-terminal, kept) GMMPPPPMGMMPPPPPPPSGQPPPPPSGPLPPWQQQQQQPPPPPPPSSSMASSTPLPWQQNTTTTTTSAGTGSIPPWQQQQAAAAASPGAPQMQGNPTMVPLPPGVQPPLPPGAPPPPPPPPPGSAGMMYAPPPPPPPPMDPSNFVTMMGMGVAGMPPFGMPPAPPPPPPQN | 0.28 ± 0.02 | 

Each binder was assayed against T3, PRPF40A WW12 (tandem WW domains, residues 141-236) (human, UniProt O75400 141-236) (assay: ITC; MicroCal PEAQ-ITC, 25 °C, 20 mM sodium phosphate pH 6.5, 100 mM NaCl; GB1-polyproline peptides in the cell, WW12 in the syringe (N sites >1: more than one WW tandem on one peptide); one-site model; apparent). Conditions: both partners purified.
T3 construct: pETM11 vector (NcoI/KpnI); also called PRPF40A WW tandem; isolated WW domains; source: E. coli BL21(DE3), purified (Ni-NTA, TEV cleavage, reverse Ni-NTA, SEC); not shown: His6, N-terminal, cleaved

Binder | Kd
GAMSGSPPPPPPPPPPPPPPPPPPPSGSN (common N-terminal residues after the TEV site (TEVsite-GAMSGS-peptide-SGSN); 19 consecutive prolines; common C-terminal residues; pET24 vector with 6xHis, GB1 and TEV site as N-terminal cassette, not cleaved; also called polyproline length 19; source: E. coli BL21(DE3), purified (Ni-NTA, SEC); not shown: GB1, N-terminal, kept) [GB1-polyproline peptide P19] | 7.02 µM and 6.5 µM and 6.76 µM
GAMSGSPPPPPPPPPPPPPSGSN (common N-terminal residues after the TEV site (TEVsite-GAMSGS-peptide-SGSN); 13 consecutive prolines; common C-terminal residues; pET24 vector with 6xHis, GB1 and TEV site as N-terminal cassette, not cleaved; also called polyproline length 13; source: E. coli BL21(DE3), purified (Ni-NTA, SEC); not shown: GB1, N-terminal, kept) [GB1-polyproline peptide P13] | 7.58 µM and 10.6 µM and 7.45 µM and 8.54 µM
GAMSGSPPPPPPPPPPPPPPPPPPPPPPSGSN (common N-terminal residues after the TEV site (TEVsite-GAMSGS-peptide-SGSN); 22 consecutive prolines; common C-terminal residues; pET24 vector with 6xHis, GB1 and TEV site as N-terminal cassette, not cleaved; also called polyproline length 22; source: E. coli BL21(DE3), purified (Ni-NTA, SEC); not shown: GB1, N-terminal, kept) [GB1-polyproline peptide P22] | 8.84 µM and 9.73 µM and 9.29 µM
GAMSGSPPPPPPPPPPPPPPPPPPPPPPPPPPPPPSGSN (common N-terminal residues after the TEV site (TEVsite-GAMSGS-peptide-SGSN); 29 consecutive prolines; common C-terminal residues; pET24 vector with 6xHis, GB1 and TEV site as N-terminal cassette, not cleaved; also called polyproline length 29; source: E. coli BL21(DE3), purified (Ni-NTA, SEC); not shown: GB1, N-terminal, kept) [GB1-polyproline peptide P29] | 7.3 µM and 11 µM and 9.15 µM
GAMSGSPPPPPPPPPPPPPPPPPPPPPPPPPSGSN (common N-terminal residues after the TEV site (TEVsite-GAMSGS-peptide-SGSN); 25 consecutive prolines; common C-terminal residues; pET24 vector with 6xHis, GB1 and TEV site as N-terminal cassette, not cleaved; also called polyproline length 25; source: E. coli BL21(DE3), purified (Ni-NTA, SEC); not shown: GB1, N-terminal, kept) | 10.5 µM and 11 µM and 10.8 µM
GAMSGSPPPPPPPPSGSN (common N-terminal residues after the TEV site (TEVsite-GAMSGS-peptide-SGSN); 8 consecutive prolines; common C-terminal residues; pET24 vector with 6xHis, GB1 and TEV site as N-terminal cassette, not cleaved; also called polyproline length 8; source: E. coli BL21(DE3), purified (Ni-NTA, SEC); not shown: GB1, N-terminal, kept) [GB1-polyproline peptide P8] | > 50 µM

Source: article PMC11079029, “Intramolecular autoinhibition regulates the selectivity of PRPF40A tandem WW domains for proline-rich motifs” (Nature Communications, 2024)
